Data: patent US8691772B2, “HSP60, HSP60 peptides and T cell vaccines for immunomodulation” (Yeda Research and Development Co. Ltd., priority 2005, dated 2014)

Columns and labels:
[1] = tested on: human CD3^+, CD4^+, and CD8^+ T cells; assay: Cytokine secretion of anti-CD3-activated CD3+, CD4+, CD8+ and CD25-separated T cells; assay type: cell-based; details: for secretion of IL-10 and TGF-β: anti-CD3
Description: Purified T-cell populations. […] In a second round of purification, CD4^+ T cells were separated to CD25^− and CD25^+ populations with magnetically coupled mAb against human CD25 (Miltenyi Biotec; Bergisch Gladbach, Germany).

CD8^+ T cells = assay: Co-culture of treated CD4+CD25+ T cells with CD8+ T cells; assay type: cell-based, human; details: 1% or more HSP60-treated CD4+CD25+ T cells; anti-CD3 24 hr
[2] = tested on: AKT, Pyk-2, p38, ERK, NF-κB, T-bet; assay: Western blot analysis of CD4+CD25+ / CD4+CD25- T-cell lysates; assay type: cell-based, human
Description: CFSE labeling of CD4^+CD25^− T cells. CD4^+CD25^− T cells were labeled with Vybrant™ CFDA SE Cell Tracer Kit (Molecular Probes; Eugene, Oreg.) according to the manufacturer's instructions. Labeled CD4^+CD25^− T cells were co-cultured with CD4^+CD25^+ T cells on anti-CD3 mAb, as described above, for 6 hr. After co-culture, CD4^+CD25^− T cells were isolated by sorting using a Becton Dickinson FACSVantage (Mountain View, Calif.).
Western blot analysis of T-cell lysates. Indicated populations of T cells (5×10^6) were preincubated with 1 ng/ml of HSP60 for 10 min (37° C. in a 7% CO2, humidified atmosphere). […] Total cell lysates, nuclear and cytoplasmic extracts were prepared as previously described (Zanin-Zhorov et al., 2003, section D of the Examples herein), analyzed for protein content. Sample buffer was then added and, after boiling, the samples, containing equal amounts of proteins, were separated on 10% SDS-PAGE gel and transferred to nitrocellulose membranes. The membranes were blocked and probed with the following mAb in the same buffer: anti-phosphorylated (p) ERK. […]

NFATp = NFATp activation in T cells; assay type: cell-based, human
Protocol: Western blot analysis of T-cell nuclear extracts. Purified T cells (5×10^6) were preincubated with different concentrations of HSP60 for the indicated periods of time (37° C. in a 7% CO2, humidified atmosphere). […] T cells were lysed in 10 mM HEPES, 1.5 mM MgCl2, 1 mM dithiothreitol (DTT), 1 mM PMSF, 0.5% Nonidet P-40. The lysates were incubated on ice for 10 min and centrifuged at 2000 rpm for 10 min at 4° C. The supernatants (cytoplasmic extracts) were transferred and the pellet (nuclei) was suspended in buffer containing 30 mM HEPES, 450 mM NaCl, 25% Glycerol, 0.5 mM EDTA, 6 mM DTT, 12 mM MgCl2 1 mM PMSF, 10 μg/ml leupeptin, 10 μg/ml pepstatin, 1% phosphatase inhibitor cocktail, and the suspension was incubated on ice for 30 min. The lysates were cleared by centrifugation (30 min, 14×10^3 rpm, 4° C.), and the resulting supernatants analyzed for protein content. For NFATp analysis nuclear extracts were prepared with a NE-PER Nuclear and Cytoplasmic Extraction reagent (Pierce, Rockford, Ill.) according to the manufacturer's protocol. Sample buffer was then added and, after boiling, the samples, containing equal amounts of proteins, were separated on 10% SDS-PAGE gel and transferred to nitrocellulose membranes. The membranes were blocked with TBST buffer containing low-fat milk (5%), Tris pH 7.5 (20 mM), NaCl (135 mM) and Tween 20 (0.1%), and probed with the following mAb in the same buffer: anti-NF-κb (diluted 1:1000), anti-total (t) ERK (diluted 1:20,000), anti-NFATp (diluted 1:500), anti T-bet (diluted 1:1000), anti-GATA-3 (diluted 1:1000), anti-Lamin B (diluted 1:1000). Immunoreactive protein bands were visualized using labeled secondary antibodies and the enhanced ECL system.

ConA-induced hepatitis = ConA-induced hepatitis (acute liver injury); assay type: in vivo, BALB/c mice
human T cells = assay: Cytokine secretion of anti-CD3-activated purified human T cells
Protocol: Human T cells. T cells were purified from the peripheral blood of healthy human donors (Blood Bank; Tel-Hashomer, Israel). The whole blood was incubated (20 min, 22° C.) with RosetteSep™ human T-cell enrichment cocktail (StemCell Technologies, Vencouver, BC, Canada). The remaining unsedimented cells were then loaded onto Lymphocyte Separation Medium (ICN Biomedicals; Belgium), isolated by density centrifugation, and washed with PBS. The purified cells (>95% CD3^+ T cells) so obtained were cultured in RPMI containing antibiotics and 10% heat-inactivated FCS.
Cytokine secretion. T cells (2×10^6 cells per ml) were activated (1 hr, 37° C.) with the indicated concentrations of HSP60 in 24-well plates in RPMI containing 10% heat-inactivated FCS. The cells were then washed and re-plated at the same concentration on anti-CD3 mAb pre-coated 24-well plates (0.5 μg/ml; non tissue culture grade plates) in serum free medium containing 0.1% BSA at 4° C. for 24 hr. The supernatants were collected, and the cytokine content (TNF-α, IFN-γ, and IL-10) was determined by ELISA, using the appropriate mAb, according to the manufacturer's instructions.

[3] = CD3+ and CD4+ T cells pre-treated 2 hours, washed, anti-CD3 24 hr
[4] = i.p. 330 μl, 500 ng/ml, 18 and 1 hr prior to ConA, 24 hr after ConA

B1: HSP60: recombinant human heat shock protein 60 (StressGen Biotechnologies) (protein)
chain: AKDVKFGADARALMLQGVDLLADAVAVTMGPKGRTVIIEQSWGSPKVTKDGVTVAKSIDLKDKYKNIGAKLVQDVANNTNEEAGDGTTTATVLARSIAKEGFEKISKGANPVEIRRGVMLAVDAVIAELKKQSKPVTTPEEIAQVATISANGDKEIGNIISDAMKKVGRKGVITVKDGKTLNDELEIIEGMKFDRGYISPYFINTSKGQKCEFQDAYVLLSEKKISSIQSIVPALEIANAHRKPLVIIAEDVDGEALSTLVLNRLKVGLQVVAVKAPGFGDNRKNQLKDMAIATGGAVFGEEGLTLNLEDVQPHDLGKVGEVIVTKDDAMLLKGKGDKAQIEKRIQEIIEQLDVTTSEYEKEKLNERLAKLSDGVAVLKVGGTSDVEVNEKKDRVTDALNATRAAVEEGIVLGGGCALLRCIPALDSLTPANEDQKIGIEIIKRTLKIPAMTIAKNAGVEGSLIVEKIMQSSSEVGYDAMAGDFVNMVEKGIIDPTKVVRTALLDAAGVASLLTTAEVVVTEIPKEEKDPGMGAMGGMGGGMGGGMF
[1]
  effect on cytokine secretion at doses in the order of 10 ng/ml: did not affect cytokine secretion
[1]; 1 ng/ml, 2 hours, anti-CD3 24 hours
  inhibition of IFN-γ and TNF-α secretion in purified CD4+CD25- T cells: completely prevented the inhibition of IFN-γ and TNF-α secretion by HSP60 treatment
[1]; [3]
  enhancement of IL-10 secretion: 2-3 fold
  inhibition of anti-CD3-induced IFN-γ secretion: about 50%
  inhibition of anti-CD3-induced TNF-α secretion: about 50%
[1]; CD4+CD25- T cells, 1 ng/ml
  secretion of IL-10 and TGF-β: but not of CD4^+CD25^− T cells
[1]; HSP60 alone, 0.01-1000 ng/ml
  cytokine secretion without anti-CD3: did not induce cytokine secretion by the T cells
[1]; P<0.05
  higher concentrations at which cytokine secretion was again affected significantly: 0.1-1 μpg/ml
  low concentrations with significant effects on cytokine secretion: 0.1 to 1.0 ng/mL
[1]; anti-CD3-activated
  cytokine secretion of CD8+ T cells: unresponsive to HSP60 at all concentrations tested
[1]; un-separated CD4+ or CD4+CD25+ T cells, 1 ng/ml
  secretion of IL-10 and TGF-β: significantly up-regulated the secretion of IL-10 and TGF-β
CD8^+ T cells
  inhibition of IFN-γ or TNF-α secretion in co-culture with CD8+ T cells: 3-4 fold
[2]; CD4+CD25+ T cells, 1 ng/ml, 10 min
  phosphorylation of AKT, Pyk-2, and p38: induced phosphorylation of AKT, Pyk-2, and p38
[2]; co-culture with HSP60-treated CD4+CD25+ (1:9), anti-CD3, 6 hr
  ERK phosphorylation, NF-κB nuclear translocation and T-bet expression in CD4+CD25- T cells: down-regulation of ERK phosphorylation, inhibition of nuclear translocation of NF-κB and T-bet expression
NFATp; 1 ng/ml
  time at which NFATp inhibition was apparent: 60 min
  time of peak NFATp inhibition: 120 to 240 min
NFATp; 1 ng/ml pre-treatment
  anti-CD3-induced activation and de-phosphorylation of NFATp: significant down-regulation of their activation and de-phosphorylation of NFATp
NFATp; HSP60 alone
  NFATp phosphorylation in the absence of anti-CD3: did not affect NFATp phosphorylation
ConA-induced hepatitis; 2 hr after ConA
  serum level of IL-6: to a lesser extent
  serum level of IL-10: increasing the level of IL-10
  serum level of TNF-α: reduced the levels of TNFα
ConA-induced hepatitis; 24 hr after ConA
  histopathologic examination of liver sections: only minimal liver damage
ConA-induced hepatitis; P<0.05
  GATA-3 expression in splenic T cells: significantly augmenting the expression
ConA-induced hepatitis; [4]
  serum ALT: significantly (P≦0.05) inhibited the secretion of AST and ALT
  serum AST: significantly (P≦0.05) inhibited the secretion of AST and ALT
ConA-induced hepatitis; mice treated with HSP60 only
  SOCS3 expression in splenic T cells: became elevated following HSP60 treatment
ConA-induced hepatitis; mice treated with both ConA and HSP60
  SOCS3 expression in splenic T cells: even more elevated
ConA-induced hepatitis; mouse, in vivo
  ConA-induced T-bet expression in splenic T cells: suppressed the ConA-induced expression
Human T cells
  effect on cytokine secretion at doses in the order of 10 ng/ml: did not appear to affect cytokine secretion
  secretion of IL-4 and IL-13: increases the secretion
Human T cells; HSP60 alone
  cytokine secretion without anti-CD3: did not induce cytokine secretion from the T cells
Human T cells; P<0.05
  higher concentrations at which cytokine secretion was again affected: 0.1 to 1 µg/mL
  low concentrations with significant effects on cytokine secretion: 0.1 to 1.0 ng/mL
